Measurements published in article doi:10.1101/2024.01.14.575549v2 (bioRxiv, 2024).

What was measured:
[1] = system: human neuroblastoma SH-SY5Y cells; assay: Aβ42 aggregates on SH-SY5Y cells with or without 1,6-hexanediol treatment; assay type: cell-based
[2] = Susceptibility of Aβ42 condensates to 1,6-hexanediol and KCl in vitro; assay type: physicochemical; details: confocal microscopy
[3] = assay type: physicochemical
[4] = Diffusion coefficient of free Aβ42 in solution by MDS; assay type: physicochemical; details: Stokes-Einstein equation from hydrodynamic radius measured by MDS

## OCCCCCCO [HXD, 1,6-hexanediol, reference compound]
[1]; SH-SY5Y cells, 2 μM Aβ42 monomer for 16 h, then 2.5% w/v 1,6-hexanediol
  decrease of Aβ42 aggregate number normalised by total cell area, versus vehicle: 30%

## amyloid β1-42 [Aβ42]
[2]; condensates incubated 22 h on DMPC membrane, 100% (6 M) HXD
  response of mature Aβ42 condensates to 100% 1,6-hexanediol: remained intact
[2]; condensates on lipid membrane, 50% HXD
  response of Aβ42 condensates to 50% 1,6-hexanediol: dissolved
[1]; SH-SY5Y 40 000 cells/well, 2 μM monomer, 48 h incubation
  area of Aβ42 species at high cell densities: < 50 µm^2
[3]; estimated from Figure 6d (FCS, non-LLPS conditions)
  timescale for the direct solution to amyloid fibril transition: 61 h
[3]; from t = 3 h, c = 2 μM
  ΔG^‡LLPS, free energy barrier for monomeric to liquid transition: 8.01 kcal/mol
[3]; from t = 21 h
  ΔG^‡LTS, free energy barrier for liquid to solid transition: 8.05 kcal/mol
[4]
  diffusion coefficient of Aβ42 in solution: 1.4 ± 0.1 × 10^−10 m^2s^−1
